Reference: the DeepSol protein solubility set

Assay: soluble on expression in E. coli; label from the status in PepcDB or PDB records

Row | Sequence | soluble on expression in E. coli
1 | MSLTSPSELRSGKTHRDENFPVASWIIHPRHRDLILAFYNFVRTADDIADHEMLDGDTKLEYLDLLEAELLGRGETQPEAVHLRRALAERGMPPRHALDLLTAFRMDVTKLRYEDWDEVIHYCRYSAMPVGRFMLDVHGESTTTWQASDALCAGLQINNHLQDCGKDYRTLNRVYLPRDVLDAAGAKVEDLGLQKSSPALLKCLQGLAVRTASLLGDGRPLAAEIKDYRLGLEVSVIQAYADRIVRMLQTRDPLSERVHLKPIEFVIASFGAMSSEIVRRSEGHHHHHH | soluble
2 | MSLTTATTSQTALRSRKDVPLSDCWDTKSLYASREVWQDELKKVGAEGAPFWPHLSENNFDIKQPSSLRELLTTVFSIERTLDKLYVYAHLTYDEDIANQEAAADLKSITFLLTSFVEEISWIQPALIALPQQVVNMLLASPELQEYHFYLKKLFRLAPHTGTSREEKILASSFPALEVAYKTFSSLTDSEIPFGEAVDSEGKSHPLSHALASLYMQSTDRELRKNTYQKQCQRHHGYRLSLANLLNGKIQAHLFNAKARDYDSCLEAALFQNDISTSVVTTLIDTVKQHTHLITEYFQLKQKALGLSDFHFYDVYAPLVASEASRHYSYQEAVTLICDSLSLLGNDYVETLRKGLTSDGWVDKYENTNKRSGAYSSGCYDSKPYILLNYTGTLYDVSVVAHEGGHSMHSFLSHKHQSYHEAQYPIFLAEIASTLNETLLMEFLLKQAPSKEEKIAILSRSLDTVFATLFRQTLFAAFELEMHSAAEQGLPLTEEFFSQSYEKLQRLFYGDCITFDEHSCIEWARIPHFYYNFYVYQYATGIIASLCFSERILSGEEGAQEAYLTFLRSGGSDFPIEILKKSGLDMTSSAPMLKAFSYIERKLEELASLLEGHHHHHH | soluble
3 | MSLTTILDIAKLAGVAKSTVSRYLNGGSVSEPTRQKIERVIKETGYIPNAFAQSLKAKQTNFIGTIVPRLDSFAASRTVMGIDDELKSLGYQMLMSNTDQSVEREIETIYNLANQKIAGVILLATVITKEHLNAFREVGIPTLLVGQEHTEVPCLIHDDFKAGYEMGKHVLSKGHKRIAYLGVGEHDIAVGVKRKEGFKQAMAEHGPCEVAYFETSFSMQDSFRVSPKMIETYQPSALVCATDNIALGALKGAYSIGMNVPKDLSITGFGGYEVTGIIHPSLTTVNFHFKAAGKMAARKMIKLMNGEEVNHLTRMDVELIERESVDNEGHHHHHH | soluble
4 | MSLTTIPIWDVQQTPELNISAADYSLLTDLYQLTMAACYTGEGVEQRRASFELFVRRSPEGFGYLIAMGLAQALEYLEKLRFSPEQIAALQATGIFAHAGEGFWSLLAEGRFTGDVWAVPEGTAVFANEPLLRVEAPLWQAQLVETYLLNTLNYQTLVATRAARLRDIAGEQATLLEFGTRRAFSPQASLWAARAALAGGLDATSNVLAALQLGQQPSGTMAHALVMALSAMEGSEEQAFSAFHRYFPGAPLLIDTYDTIAAAQHLAEKVNTGKMELSGVRLDSGDLVSLSKQVRSLLPDVSIFASGDLDEWEIAKLQAAGAEIDGYGLGTKLVTGSPVNGVYKLVEIDDIPVMKKSSGKTTYPGRKQIFRSFGDGQVQADRLGLITDTPLITEKPLLELVVKEGQRLQPRETLSAIRQRTAASVASLPEQTRRLDNPVPVPIQISTALQDLTEVTLQRLNEGHHHHHH | not soluble
5 | MSLTTLNIGLILPDVLGTYGDDGNALVLRQRARMRGINAEIQRVTLDDAVPSTLDLYCLGGGEDTAQILATEHLTKDGGLQTAAAAGRPIFAVCAGLQVLGDSFRAAGRVIDGLGLIDATTVSLQKRAIGEVETTPTRAGFTAELTERLTGFENHMGATLLGPDAEPLGRVVRGEGNTDVWAASENTDDQRQQFAEGAVQGSIIATYMHGPALARNPQLADLMLAKAMGVALKEGHHHHHH | not soluble
6 | MSLTTSIPAPPAESIDQVLNLISKGSNGAAQQSKHPLRIVMGSVMISEIGALISGVLKSLNNNFTTQKVWEEDYLVRVMAHLGLFAHAVGSQVSANDLTQLLTLYVQRLSARGFTDLVPLYLSFIPDDSDAREYYSKFLSSITDPSERTKQLQLVRKLGIDSNGDEERMANVLRRTVERVMADTEAEYRPSGEVTVQDEDTDVTETDTKICQSVDWYFENNMYPDAVSASLTVIRRFLACGRLAALRHFVRGKDLKQLVKNYDVDLYTRSLAGLDDGAQVGDADKDEIIQYHLFVQGLELIQDWRKFLKDNQTNSLSAVFWKSKHLESLIEKVSSGIVGLIRDWFQELIATDGTKKEMYQQLRVLYVPYLVMELLDIYQQARMSNWLYVKKAFELVSLVADEDNNDLLTCFVNCGRLDELMVRSGNLAAVACERGIANIFSEGHHHHHH | soluble
7 | MSLTTSKTRKSGVAMTEKLELDPARTAIVLIEYQNEFTSDGGVLHGAVADVMQHTGMLANTVAVVDAARQAGVPIMHAPITFAEGYGELTRHPYGILKGVVDGKAFVKGTWGAAIVDELAPVNGDIVIEGKRGLDTFASTNLDFILRSKGVDTIVLGGFLTNCCVESTMRTGYERGFRVITLTDCVAATSQEEHNNAISYDFPMFSVPMTSADVIAALEGHHHHHH | soluble
8 | MSLTVLPVPDLLARALDRRAGLPGAGTTFFRAVHITETGGLWTLDVAGDAGILSLYTDLSAEAERDLAAQCGEAAGLSSVYLKRRPPEAKHLANVAREVLSPPDPLWGTARPEVTALEEGVPFLIRPGADLSVGLFSDARPARRWVRGHAAGQRVLNTFAYTCGFGLNAALAGAASVKNVDLSRKVLGWGQQNYALSGLAAPDHDFLYGDVFEWLTRLQRRGDLFDLVILDPPGFARSKAGTWRAEKDYGRLMAQASAVTAPGGEVLALLNHAGVSAGGLTHMVEQGLSTAGRRGHLTETLGPGRDYPGATHLKVQRWSLNEGGSHHHHHH | soluble
9 | MSLVDHVHFERELTLLKSDVSKMLFLVSESLNDAIESLETMNETLARKVLESDDMIDELNREIEEKAYQIIARYNPILKQLRYIITILKFSNDLERIGDLSCNIAEKCLFLSEEKIKFEMLKELKDMFGSTLKVVQDAFKAFVEEDVDLAFRLWKFDDVIDEMEKKIRRIVVERIREGNISAELALVYILIARDLERVGDHANNLCEEVIYIETGKNMKEFLRGVESGSEGADSEGGSHHHHHH | soluble
10 | MSLVELQEIFDVSYGSKLDLNKMSSFNPTINFVGRSGKNNGVTASVDLLKNTKPYPAGLLTVALGGSVLSTFLQNKPFYTAQNVAVLNPKTEMTEQQKLFYCAAIFANAYRFSACGREANRTLRQLFVPSLDEIPSWVESVNLNPSAGVTEPKLKESLDLPVVRQSKRLDEIFTIQNGIAATKLKEFEQRQKDTVVYIRPASTQARTLRSYIARDSVDEKHIFPCHTLFTSTNGEGSHTYSYVSTCEFVANSDVAVLTPIQSDMPIEVKLYYAKCITANRYLFSYGRKPKGEKLKSIMLPYFDQQEDFDYICRFIHTLLFSNNLEGHHHHHH | soluble
11 | MSLVENLFLEPQSKRRKINPETIESPSPNCNHWFVRNKICISCYTTVDNFEGRSFDYLYKGMQMSNEALGFTKGLISQTSWLEDKKLHLVLDLDQTLIHTIKTSLLYESEKYIIEEVESRKDIKRFNTGFPEESLIKLRPFVHQFLKECNEMFSMYVYTKGGYDYARLVLEMIDPDKFYFGNRVITRRESPGFKTLDLVLADERGIVIVDDTSSVWPHDKKNLLQIARYKYFGDKSCLFSEDKKKIDESDEKGPLNTALRFLKDVHEEFFYDWSKKDLDSVDVRPLLKEISLRWKRKADGVV | soluble
12 | MSLVFVACGLNHKTAPIHVREKVALQPAMQDSLLSSLLDLPEVNEAAILSTCNRTEIYCDTNTPEVLGNWLAHEHQLSEELLSQFLYIHQGKEGIKHTLRVASGLDSMMIGEPQILGQMKQAYQHACRLGTVKTQLRPVFEYIFRASKRIRTRSGIGANPVSIAYAAVQLIGQLFKNYHSLSVFLIGSGETASLVAKYLHQHGVHRFLIASRTLENAQKLAETFGGKTLSIGDIPQYLPLADVVISATACPLPFINKSLVEHALEQRNHAPMFLLDLAVPRDIEGNVNELEQVHLYNVDDLQSMIEKGMDERRNAALQAEQLIESELDNYIRWHRSLRAKDVICDYRNQMHTLAQQELQRALKKISAGQNQQDVLNEFSMRLVNKLTHNPTIGLRQIAWDNREDLLDLARYLFDTTANQSLYEEISEGHHHHHH | not soluble
13 | MSLVGYSAVSQPSPASFLLGPTLPPAPSIAFRLWRPYSMTARITSVEALPYRLPLTSKLAWGAHSALSAAEHVLVRVTLSDGSVGVAEATPRPTIYGETPGSVTAILQHLEPALLGLDIADEAALNRVRGSVAGNHTARGALDMALWEARAASRGQSLFDTLLGPHERVRVSFILGIAPPAEMLAEAERVVAAGVRCLKVKVGRHAAQDLQVIAELRRRYGDDVQLYADSNETLTLEQAPDVLAAMREAGLMYVEEPLPARDLRARAALHAAGVLPIVADDSCFTPADLERELDFDTFDVLNVKTARNGFTDGLQMLRRAAEHGKRGMVGSQASTGLGTLHAALLSTQAEVTEPCELSFVLKLGDDLLNRPIEFQDGWLNVPELREHRLDEDKLARYRIEGHHHHHH | not soluble
14 | MSLVPARPNRPEADREALWKIVHDRCEFGYRRTGAYAPCTFVDEQSGTALYKADFDPYQFLLIPLARITGIEDPALRESAGRNYLYDAWAARFLVTARLNNSLPESDVVLTINPKNARTQDQLHIHISCSSPTTSAALRNVDTSEYVGWKQLPIDLGGRRFQGLAVDTKAFESRNLFRDIYLKVTADGKKMENASIAVANVAQDQFLLLLAEGTEDQPVAAETLQDHDCSITKSEGHHHHHH | soluble
15 | MSLVRSKAPLRLGLAGGGSDVSPYSDIYGGLILNATINLYAYCTIEETNSGRIEINAYDAQCCKSYLSMSQLEIDGEASLIKGVYNRIIRDYRLEPKSFKITTYNDAPAGSGLGTSSTMVVCILKAFIEWLSLPLGDYETSRLAYEIERKDLGLSGGKQDQYAAAFGGFNYMEFLQNDLVIVNPLKMKRWIVDELESSMVLYFTGRSRSSAAIINEQKKNTSEGNQTAIEAMHKIKQSAIDTKLALLKGDVGEFARILGEGWENKKKMAGAITNPMIQEAFDVATGAGAMAGKVSGAGGGGFIMFVVEPTRKEEVVRALNNLNGFVMPFQFIDDGAHGWKIYSTDKVQKEGHHHHHH | soluble
16 | MSLVTIYDVAAKAGVSIKTVSRVMNNEPNVRPVMRERVLAAAGELGYSPNLSARSLAGSRSFVIAVFVDAALTIDHWQSERGADYLSRIQLGATLVCRDAGYHLLIELIDHEGPQVRQEVAALLAALKPDGVILTPPSSDNAVVLELLDRAGTPYVRVGPERAEGLGPRVHMDDVAAAREMTDHLIGLGHKRIGFIVGEPRYGASQARRDGYLEAMRAKGLSVPEFWVRQGDFTFQSGLEQAKALLALPERPTAIFASNDDMALGAIAAIADAGLMTPGDVSVAGFDDSPSSRFSRPQLTTVRQPVAEMSSVAAKLLIERSRGGASTERPVDELLPFTLIHRASTEGHHHHHH | not soluble
17 | MSLVTKGKSAQYIKDESAFEDFLIGSGLEEASLSLSSGEVRTGQDLRAVIDDALAIRTLINGLHTRYSRTVVEQAAIAGALNPDLFNDLGRANAMAETIARRLDLVAEDTERGWQGRTSTSNEGPGGYIMERTVRGVKESATLDMALLGSADARALDRYAARLGEEGHHHHHH | not soluble
